Measured values from patent publication US20060188874A1, “Methods and compositions for colorimetrically assessing peptide characteristics” (priority 2004, published 2006).

Assays:
Format in all cases: physicochemical
[1] = Congo Red colorimetric analysis of beta sheet aggregation; details: aggregated T-1249 peptide added to initially orange red solution
Experimental: The following procedure is used to prepare a Congo Red solution suitable for assessing, qualitatively and/or quantitatively, via colorimetric analysis the solubility and formulating characteristics of a peptide sample. A 50 mM solution of sodium phosphate buffer, pH 7.2 is prepared and filtered through a 0.22 μm Polyethersulfone membrane. 25 μM of Congo Red is dissolved in the sodium phosphate buffer with sonication. The mixture also included about 1% by volume ethanol (This can be 95% ethanol or absolute ethanol.) The solution is orange-colored.
Sonication is used until the peptide is dissolved
The peptide/Congo Red solution is incubated at ambient temperature for 3-4 hours.
According to a preferred procedure, a Hewlett Packard 8453 spectrophotometer is used to obtain a blank, reference spectrum of the 50 mM solution of sodium phosphate buffer prepared in Example 6. Using the same instrument, a spectrum for the 25 μM Congo Red solution is measured over a suitable range, e.g., from about 300 nm to about 650 nm. […] If this difference is greater than an empirically determined quality control specification, the sample can be deemed to fail. […]

[2] = Dissolution test of peptide sample (pH raised stepwise until dissolved)
Experimental: For example, a simple dissolution test can be used to evaluate the solubility characteristics of a peptide sample. The test is conveniently carried out at a temperature in the range of from about 20° C. to about 27° C., preferably about 25° C. From about 0.1 to about 0.3 grams of peptide is combined with about 1 to about 3 ml of an aqueous medium. The medium may be deionized water. In the case of T-20 or T-1249, these peptides are mildly acetic. Consequently, the medium optionally may include some initial amount base, e.g., about 17 mM Na2CO3 or the like, to provide a suitable initial pH. […] The mixture is rapidly stirred for 5 to 10 minutes between additional increments. Solids adhering to the sides of the testing vessel should be re-suspended. Rapid mixing should be maintained throughout. Results include observations regarding the clarity of the mixture, time required for dissolution, concentration and amount of caustic used, final pH upon dissolution (if this occurs below pH 9), and the like.
For purposes of the invention, peptides such as T-20, T-1249, and GLP-1, as well as counterparts of these, may be deemed to be in a more desired, deaggregated form if dissolution in accordance with this test occurs at a pH of less than about 8, preferably less than about 7.5. If dissolution occurs at a pH of greater than about 7.5, more preferably greater than about 8, the peptide is deemed to be in a less desired aggregated form. This helps to ensure the practicality of handling the peptide during subsequent processing and handling.

[3] = Molar mass by MALS light scattering (apparent MW as measure of aggregation); details: solution sample taken during acid addition at pH 9.3, re-work of Sample A
Description: Molecular weight analysis is also a useful technique to assess beta sheet structure in a peptide. Depending upon the technique and equipment used, the molecular weight may be the weight average molecular weight, number average molecular weight, actual molecular weight, or average molecular weight. Assessment of average molecular weight or weight average molecular weight are preferred. A peptide formed from a known sequence and number of amino acids generally has a theoretical molecular weight that is known with a fair degree of certainty. The theoretical molecular weight can be calculated from the theoretical peptide structure. The molecular weight of a peptide sample can be determined through any suitable technique such as light scattering analysis. However, the amount of beta sheet structure of a sample impacts its measured molecular weight. Generally, the measured molecular weight tends to be higher with increasing amounts of beta sheet structure being present.
As an example, the T-1249 peptide has a theoretical molecular weight of about 5000. The measured, apparent molecular weight of actual samples of the peptide may range from 6000 to 100,000 or even more. […]
Sample A was a portion of a highly aggregated batch of T-1249 peptide having an average molecular weight of 98,890±6660. The molar mass was determined using MALS light scattering. […]

[4] = precipitated with 18% by volume acetonitrile

## Acetyl-WQEWEQKITALLEQAQIQQE KNEYELQKLDKWASLWEWF-NH2 (Ac-WQEWEQKITALLEQAQIQQEKNEYELQKLDKWASLWEWF-NH2) [Sample T-1249, ID NO; 20]
[1]
  colour change of Congo Red solution: deep salmon-pink color
[2]; precipitated with 14% by volume acetonitrile
  dissolution behaviour: dissolved to some degree at a pH of 6.95 but not completely
[2]; [4]
  dissolution time: 1 h
  final pH at dissolution: 6.69
  turbidity appearance at dissolution: very faint turbidity
[2]; precipitated with 20 to 22 volume percent acetonitrile
  dissolution pH: around 9
[2]; precipitated with no co-solvent, after 14 to 18 hours, pH of 8
  dissolution behaviour: dissolved very slowly with high turbidity
[3]
  molar mass by the MALS method: 6500
